Assay results from patent US20190169246A1.

Target: ApoER2 of primary neuronal culture from embryonic day 17 mice (mouse) (UniProt Q924X6)
Experiment: cell-based or functional assay

Sequence of ApoER2 of primary neuronal culture from embryonic day 17 mice (mouse) (Q924X6 29-996): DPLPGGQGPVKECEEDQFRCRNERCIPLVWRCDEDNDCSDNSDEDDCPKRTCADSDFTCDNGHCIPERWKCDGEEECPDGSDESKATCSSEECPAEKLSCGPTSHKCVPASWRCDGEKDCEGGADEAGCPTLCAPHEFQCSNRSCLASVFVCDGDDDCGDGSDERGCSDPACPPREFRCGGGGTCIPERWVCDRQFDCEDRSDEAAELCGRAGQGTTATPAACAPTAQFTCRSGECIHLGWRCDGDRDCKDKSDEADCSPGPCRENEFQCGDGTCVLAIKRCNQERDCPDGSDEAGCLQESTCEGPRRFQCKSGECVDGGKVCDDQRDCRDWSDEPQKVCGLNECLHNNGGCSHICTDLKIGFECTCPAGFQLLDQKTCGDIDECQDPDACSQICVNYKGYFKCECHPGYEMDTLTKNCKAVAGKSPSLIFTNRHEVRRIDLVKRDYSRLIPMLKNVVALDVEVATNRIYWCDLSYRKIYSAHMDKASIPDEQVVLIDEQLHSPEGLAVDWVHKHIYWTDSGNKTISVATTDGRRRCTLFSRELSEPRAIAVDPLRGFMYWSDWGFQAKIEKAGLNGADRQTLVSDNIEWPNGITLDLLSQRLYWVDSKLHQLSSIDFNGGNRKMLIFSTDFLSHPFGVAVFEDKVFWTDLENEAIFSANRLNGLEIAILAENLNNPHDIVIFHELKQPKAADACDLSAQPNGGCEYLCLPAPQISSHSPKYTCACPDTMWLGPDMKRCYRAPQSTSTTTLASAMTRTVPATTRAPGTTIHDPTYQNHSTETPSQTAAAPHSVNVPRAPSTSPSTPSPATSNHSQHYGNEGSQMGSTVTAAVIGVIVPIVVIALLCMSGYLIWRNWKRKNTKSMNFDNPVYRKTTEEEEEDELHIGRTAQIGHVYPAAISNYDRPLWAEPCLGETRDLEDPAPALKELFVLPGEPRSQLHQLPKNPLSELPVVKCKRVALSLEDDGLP

Row | Substance | levels of phosphorylated ERK to total ERK, primary neurons, 60 minutes (ratio pERK/total ERK)
1 | full length Reelin consisting of the full length sequence and all of the naturally occurring fragments (ligand) | 2.5
2 | mouse Reelin N terminal through repeat R2 (from UniProt Q60841 27-1221) (ligand) | 0.53

Other lines, results leading:

Row | levels of phosphorylated ERK to total ERK, primary neurons, 60 minutes (ratio pERK/total ERK) | Substance
3 | 2.22 | Recombinant, human Reelin protein, R3 fragment conjugated to the R5 fragment (Reelin protein fragment R3+R5) (from UniProt P78509 1-2270) (ligand)
4 | 2 | Recombinant, human Reelin protein, R3 fragment conjugated to the R6 fragment (Reelin protein fragment R3+R6) (from UniProt P78509 1-2618) (ligand)
5 | 1.15 | mouse Reelin repeats R3 through 6 (from UniProt Q60841 1222-2661) (ligand)
